For test [1], the target named is the 3 mAbs (2A4, 8G9 and 7D8) as a group. The test is described as follows: Competition ELISA; told for the three mAbs together.
Test [2] concerns the target murine monoclonal antibody 2A4 (ATCC Accession Number PTA-9662). The test is described as follows: Competition ELISA; human AA amyloid in solution competing with adsorbed mouse AA (AEF) for mAb 2A4. For orientation: An ELISA detects its analyte on a solid surface through an enzyme-linked reagent.
In test [3] the target is murine monoclonal antibody 7D8 (ATCC Accession Number PTA-9468). The test is described as follows: Competition ELISA; human AA amyloid in solution competing with adsorbed mouse AA (AEF) for mAb 7D8.
The target in test [4] is murine monoclonal antibody 8G9. The test is described as follows: Competition ELISA; human AA amyloid in solution competing with adsorbed mouse AA (AEF) for mAb 8G9.
murine monoclonal antibody 8G9, sequence (VL, as listed by the source, chain 1 of 2): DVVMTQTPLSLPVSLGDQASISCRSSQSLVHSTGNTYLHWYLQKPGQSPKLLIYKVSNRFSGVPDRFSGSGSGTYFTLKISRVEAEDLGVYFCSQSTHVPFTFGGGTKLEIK
murine monoclonal antibody 8G9, sequence (VH, as listed by the source, chain 2 of 2): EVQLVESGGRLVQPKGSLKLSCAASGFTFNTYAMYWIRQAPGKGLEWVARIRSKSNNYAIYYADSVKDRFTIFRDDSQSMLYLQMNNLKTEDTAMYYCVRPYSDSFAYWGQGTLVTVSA

murine monoclonal antibody 2A4 (ATCC Accession Number PTA-9662), sequence (VH, as listed by the source, chain 2 of 2): as above
murine monoclonal antibody 7D8 (ATCC Accession Number PTA-9468), sequence (VL, as listed by the source, chain 1 of 2): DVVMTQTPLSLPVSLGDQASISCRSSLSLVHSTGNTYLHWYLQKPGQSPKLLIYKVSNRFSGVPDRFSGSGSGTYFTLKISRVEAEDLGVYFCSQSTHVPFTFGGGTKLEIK
murine monoclonal antibody 7D8 (ATCC Accession Number PTA-9468), sequence (VH, as listed by the source, chain 2 of 2): as the sequence (VH, as listed by the source, chain 2 of 2) above

B1: human AA amyloid (human renal AA amyloid extract; AA deposits in human tissue) (protein, UniProt P0DJI8 19-94, looked up)
Amyloid protein A: RSFFSFLGEAFDGARDMWRAYSDMREANYIGSDKYFHARGNYDAAKRGPGGAWAAEVITDARENIQRFFGHGAEDS
modifications: Amyloid protein A amyloid fibrils
Broadly, the IC50 is the point on the concentration scale where inhibition reaches its midpoint. In the case of B1, the fold of IC50 against murine AEF in solution in test [1] lay within 6 to 44 fold. Moreover, the figures for the IC50 in test [2], in test [3] and in test [4] were > 212 µg/mL, > 881 µg/mL and > 120 µg/mL, respectively.
